Assay [1] deals with biotin-PCSK9-his (human) (UniProt Q8NBP7). Nature of the assay: competitive ELISA, one antibody coated, biotin-PCSK9-his + 50-fold competing antibody; competitor 21B12 (itself). For orientation: ELISA stands for enzyme-linked immunosorbent assay.
For assay [2] the target is unchanged. Nature of the assay: competitive ELISA, one antibody coated, biotin-PCSK9-his + 50-fold competing antibody; competitor h011-3133-YTE.

Take “21B12 (U.S. Pat. No. 8,030,457B2) (antibody)”: the IR (%) is 97.8% with biotin-PCSK9-his (human) [1] and 3.01% with biotin-PCSK9-his (human) [2].
